We go through one substance from patent publication US20110065592A1.

The target in the test is RNA Pol II (UniProt P24928). Put plainly: cell-based or functional assay.

Turning to “anti RNA Pol II antibody (Santa Cruz sc-899)”, the cT of real-time PCR for GAPDH gDNA released from wells coated with the RNA Pol II antibody, compared with wells coated with the unspecific anti IgG antibody was below 5 cT; the delta between the cT's obtained using the specific RNA Pol II antibody and the unspecific anti-mouse IgG antibody (all three washing procedures) was above 0 cT; the delta between the cT's obtained using the specific RNA Pol II antibody and the unspecific anti-mouse IgG antibody (washing with LS buffer and TE) stood at 3.3 cT.
